FireProtDB (doi:10.1016/0141-8130(95)93517-2)

Settings: Armoracia rusticana, CD, reversible: yes, whole UniProt chain shown
[1] = pH 3.2, 22 °C, GdnHCl, glycine 50 mM
[2] = pH 3.2, 22 °C, Urea, glycine 50 mM
[3] = pH 3.2, 25 °C, GdnHCl, glycine 50 mM
[4] = pH 3.2, 25 °C, Urea, glycine 50 mM
[5] = pH 3.2, 27 °C, GdnHCl, glycine 50 mM
[6] = pH 3.2, 27 °C, Urea, glycine 50 mM
[7] = pH 3.2, 30 °C, GdnHCl, glycine 50 mM
[8] = pH 3.2, 30 °C, Urea, glycine 50 mM
[9] = pH 6.4, 22 °C, GdnHCl, sodium phosphate 2.5 mM
[10] = pH 6.4, 22 °C, Urea, sodium phosphate 2.5 mM
[11] = pH 6.4, 25 °C, GdnHCl, sodium phosphate 2.5 mM
[12] = pH 6.4, 25 °C, Urea, sodium phosphate 2.5 mM
[13] = pH 6.4, 27 °C, GdnHCl, sodium phosphate 2.5 mM
[14] = pH 6.4, 27 °C, Urea, sodium phosphate 2.5 mM
[15] = pH 6.4, 30 °C, GdnHCl, sodium phosphate 2.5 mM
[16] = pH 6.4, 30 °C, Urea, sodium phosphate 2.5 mM
[17] = pH 10, 22 °C, GdnHCl, glycine 50 mM
[18] = pH 10, 22 °C, Urea, glycine 50 mM
[19] = pH 10, 25 °C, GdnHCl, glycine 50 mM
[20] = pH 10, 25 °C, Urea, glycine 50 mM
[21] = pH 10, 27 °C, GdnHCl, glycine 50 mM
[22] = pH 10, 27 °C, Urea, glycine 50 mM
[23] = pH 10, 30 °C, GdnHCl, glycine 50 mM
[24] = pH 10, 30 °C, Urea, glycine 50 mM

B1: Peroxidase C2 wild type, P17179 (protein)
chain: MHSSSSLIKLGFLLLLLNVSLSHAQLSPSFYDKTCPQVFDIATNTIKTALRSDPRIAASILRLHFHDCFVNGCDASILLDNTTSFRTEKDAFGNARSARGFDVIDTMKAAVEKACPKTVSCADLLAIAAQKSVVLAGGPSWKVPSGRRDSLRGFMDLANDNLPGPSSTLQVLKDKFRNVGLDRPSDLVALSGGHTFGKNQCQFIMDRLYNFSNSGKPDPTLDKSYLSTLRKQCPRNGNLSVLVDFDLRTPTIFDNKYYVNLKENKGLIQSDQELFSSPDASDTIPLVRAYADGQGKFFDAFVEAMIRMGNLSPSTGKQGEIRLNCRVVNSKPKIMDVVDTNDFASSI
denaturant m value [1]: 2.86 kcal/mol/M | unfolding free energy [1]: 6.75 kcal/mol | denaturant m value [2]: 1.23 kcal/mol/M | unfolding free energy [2]: 6.42 kcal/mol | denaturant m value [3]: 2.94 kcal/mol/M | unfolding free energy [3]: 6.25 kcal/mol | denaturant m value [4]: 1.26 kcal/mol/M | unfolding free energy [4]: 5.94 kcal/mol | denaturant m value [5]: 2.99 kcal/mol/M | unfolding free energy [5]: 5.68 kcal/mol | denaturant m value [6]: 1.31 kcal/mol/M | unfolding free energy [6]: 5.63 kcal/mol | denaturant m value [7]: 3.2 kcal/mol/M | unfolding free energy [7]: 4.98 kcal/mol | denaturant m value [8]: 1.37 kcal/mol/M | unfolding free energy [8]: 5.18 kcal/mol | denaturant m value [9]: 4.75 kcal/mol/M | unfolding free energy [9]: 6.68 kcal/mol | denaturant m value [10]: 2.02 kcal/mol/M | unfolding free energy [10]: 6.45 kcal/mol | denaturant m value [11]: 4.9 kcal/mol/M | unfolding free energy [11]: 6.38 kcal/mol | denaturant m value [12]: 2.06 kcal/mol/M | unfolding free energy [12]: 5.94 kcal/mol | denaturant m value [13]: 5.08 kcal/mol/M | unfolding free energy [13]: 6.22 kcal/mol | denaturant m value [14]: 2.11 kcal/mol/M | unfolding free energy [14]: 5.87 kcal/mol | denaturant m value [15]: 5.16 kcal/mol/M | unfolding free energy [15]: 5.62 kcal/mol | denaturant m value [16]: 2.18 kcal/mol/M | unfolding free energy [16]: 5.69 kcal/mol | denaturant m value [17]: 2.85 kcal/mol/M | unfolding free energy [17]: 6.7 kcal/mol | denaturant m value [18]: 1.28 kcal/mol/M | unfolding free energy [18]: 6.71 kcal/mol | denaturant m value [19]: 2.99 kcal/mol/M | unfolding free energy [19]: 6.4 kcal/mol | denaturant m value [20]: 1.3 kcal/mol/M | unfolding free energy [20]: 6.36 kcal/mol | denaturant m value [21]: 3.11 kcal/mol/M | unfolding free energy [21]: 5.87 kcal/mol | denaturant m value [22]: 1.37 kcal/mol/M | unfolding free energy [22]: 6.04 kcal/mol | denaturant m value [23]: 3.17 kcal/mol/M | unfolding free energy [23]: 5.23 kcal/mol | denaturant m value [24]: 1.4 kcal/mol/M | unfolding free energy [24]: 5.54 kcal/mol
